Laboratory results reported in patent US6913917B2, “Anti-cocaine catalytic antibody” (priority 1996, dated 2005).
Numbering of substitutions follows the chain as printed. “Also recorded” adds a separate entry of the source.

B1: Mab 3B9: anti-cocaine catalytic monoclonal antibody elicited by TSA 1 (antibody, V domains shown)
VH: DVQLQESGPGLVKPSQSLSLTCTVTGNSITSDYAWTWIRQFPGNKLEWMGYIRHIYGTRYNPSLISRISITRDTSKNQFFLQLDSVTAEDTATYYCVRYHYYGSAYWGQGTLVTVSAAKTTP
VL: DIVMTQDELSNPVTSGESVSISCRSSRSLLYRDGKTYLNWFLQRPGRSPQLLIYLMSTRSSGVSDRFSGSGSGTDFTLEISRVKAEDVGVYYCQHFVDYPFTFGSGTKLEIKR
modifications: mouse
B2: Mab 6A12: anti-cocaine catalytic monoclonal antibody elicited by TSA 1 (antibody)
heavy: B1 VH
light: B1 VL with I2M, S60A, C93F, V97E
modifications: mouse
B3: Mab 2A10: anti-cocaine catalytic monoclonal antibody elicited by TSA 1 (antibody)
heavy: ELVKPSQSLSLTCTVTGYSITSDYAWNWIRQFPGNRLEWMGYIRYSGITRYNPSLKSRISITRDTSKNKFFLQLNSVTTEDTATYYCVRIHYYGYGNWGQGTTLTGLP
light: B1 VL with I2M, R27K, R32E, R47Q, Q50H, S60A, V90A, H95Q, D98E, K112R
modifications: mouse
B4: Mab 9A3: anti-cocaine catalytic monoclonal antibody elicited by TSA 1 (antibody, V domains shown)
VH: SGPELVKPGASVKLSCKASGYPFTDYNMYWVKQSHGKSLEWIGYIDPSNGGIFYNQKFKGRATLTVDKSSNTAFMHLNSLTSEDSAVYYCARGGGLFAYWGQGTLVTVSE
VL: TWPGETVTLTCRSSTGTITTSNYANWVQEKPDHLFSGLIGINNNRPPGVPARFSGSLIGDKAVLTITGAQTEDEAIYFCALWYSNHWVFGGGTKLTVLG
modifications: mouse
B5: single chain Fv fragment: single chain Fv fragment for catalytic monoclonal antibody 3B9, with FLAG and 6×His (protein)
scFv: MEVQLQESGPELVKPSQSLSLTCTVTGNSITSDYAWTWIRQFPGNKLEWMGYIRHIYGTRYNPSLISRISITRDTSKNQFFLQLDSVTAEDTATYYCVRYHYYGSAYWGQGTLVTVSAGMQSGGGGSGGGGSGGAMDIVMTQDELSNPVTSGESVSISCRSSRSLLYRDGKTYLNWFLQRPGRPPQLLIYLMSTRSSGVSDRFSGSGSGTDFTLEISRVKAEDVGVYYCQHFVDYPFTFGSGTKLEIKRADGAPTVSIFFPPSLDYKDDDDKLEHHHHHH
modifications: FLAG and 6xHis tags; mouse
notes: single chain Fv fragment for catalytic monoclonal antibody 3B9, with FLAG and 6×His
B6: Mab 15A10: mouse monoclonal anti-cocaine catalytic antibody elicited by TSA 1; most active (antibody, V domains shown)
VH: SGPELVKPGASVKVSCKASGYSFTDYNMYWVKQNHGESLEWIAYIDPSNGDTFYNQKFQGKATVTLDKSSSTAFMHLNSLTSEDSAVYYCARGGGLFAFWGQGTLVTVSA
VL: AVVTQESALTTSPGETVTLTCRSSTGTITSDNYANWVQEKPDHLFSGLIGVNNYRPPGVPARFSGSLTGDKAVLTITGAQTEDEAIYFCALWYSNHWVFGGGTKLTVLG
modifications: mouse
B7: Mab 8G4G: anti-cocaine catalytic monoclonal antibody elicited by TSA 3 (antibody)
heavy: VQLLESGAELVKPGASVELSCRTSGYTFTTYYIYWVKQRPGQGLEWIGGMNPGNGVTYFNEKFKNRATLTVDRSSSIAYMQLSSLTSEDSAVYYCTRVGNSLLTGAEGLWSLSLQ
light: TRAGETVTLTCRSSSGTITANNYGSWVQEKPDHLFTGLIGVSNNRGPGVPARFSGSLIGDKAVLTITGGQTEDEAIYFCALWNSNHFVFGGGTKLTVLGQ
modifications: mouse
B8: Mab 8G4E: anti-cocaine catalytic monoclonal antibody elicited by TSA 3 (antibody, V domains shown)
VH: VQLLESGAELVMPGASVKMSCKASGYTFTDHWMHWVKQRPGQGLEWIGTIDLSDTYTGYNQNFKGRATLTLDESSNTAYMQLSSLTSEDSAVYYCSRRGFDYWGQGTTLTVSS
VL: ELVMTQSPLTLSVTIGQPASISCKSSQSLLYSDGKTYLNWFFQRPGQSPKRLIYLVSKLDSGVPDRFTGSGSGKDFTLKISRVEAEDLGLYYCVQGYTFPLTFGAGTKLELKR
modifications: mouse

Columns and labels:
[1] = test system: Mab 15A10; assay: Inhibition of Mab 15A10 cocaine hydrolysis; format: biochemical, Mouse; settings: for inhibition of Mab 15A10: at 1 mM; for Ki: read-out: inhibition constant (K1 / Ki) for Mab 15A10
[2] = test system: catalytic mAb; assay: Inhibition of the activity of the catalytic mAbs; format: biochemical, mouse
[3] = test system: cocaine esterase activity present in serum; assay: Inhibition of cocaine esterase activity present in serum; format: biochemical; settings: 150 μM
[4] = test system: conscious, unrestrained animals; settings: continuously infused cocaine 1 mg/kg/min, i.v. catecholamine infusion; previous work (19); cited from earlier work
[5] = inhalation of vaporized cocaine; cited from earlier work
[6] = ELISA with TSA 1, 2, and 3 bound to ovalbumin; format: binding
Description: The rationale for varying the tether sites of TSA to carrier protein (BSA) was to expose unique epitopes and elect catalytic antibodies specific to each immunogen. In order to assess binding specificity, the catalytic antibodies were examined by ELISA with TSA 1, 2, and 3 bound to ovalbumin.

[7] = Hydrolysis of 3H-cocaine by Mab's (kinetic measurements); settings: for Km: Michaelis constant, pH that optimized kcat/ko: in general pH 7.8, 6A12 pH 7.4, 2A10 pH 7.0; for krat: catalytic rate constant (turnover rate), same pH as Km; for kcat/ko: rate acceleration over spontaneous rate (kcat/kuncat)
[8] = Elisa analysis of single chain Fv fragment; format: binding; settings: scFv of Mab 3B9
[9] = test system: LD90 cocaine; assay: Survival after LD90 cocaine infusion; format: in vivo, rat; settings: for survival to LD90 cocaine infusion: cocaine 16 mg/kg at 1 mg/kg/min
[10] = Plasma concentrations at death by HPLC; format: in vivo, rat; settings: compared to saline or Mab 1C1 control groups, antibody 100 mg/kg
[11] = test system: cocaine-induced convulsions or death; settings: antibody 100 mg/kg
[12] = cocaine 1 mg/kg/min until death

Row | Molecule | binding specificity by ELISA [6] | Km [7] [µM] | krat [7] [min⁻¹] | kcat/ko [7] | further results
1 | O=C(O)CNC(=O)c1ccccc1 [hippuric acid] | – | – | – | – | inhibition of Mab 15A10 [1]: did not inhibit; also recorded: not an inhibitor
2 | COC(=O)[C@@H]1[C@H]2CC[C@@H](C[C@@H]1O)N2C [ecgonine methyl ester] | – | – | – | – | inhibition of Mab 15A10 [1]: not inhibited; also recorded: not observed
3 | COC(=O)C1C(OP(=O)(O)c2ccccc2)CC2CCC1N2C (stereo not shown) [free TSA 4] | – | – | – | – | inhibition of Mab 15A10 catalytic activity ([1]; free TSA 50 μM, bioreactor-produced Mab 15A10): completely inhibited; Ki [1]: 0.23 µM; inhibition of all catalytic antibodies (enzymes) ([2]; 50 μM): inhibited completely; inhibition of cocaine esterase activity present in serum [3]: did not inhibit
4 | CNC(=O)Oc1ccc2c(c1)[C@]1(C)CCN(C)[C@@H]1N2C [eserine, reference compound] | – | – | – | – | inhibition of the activity of any catalytic mAb ([2]; 1 mM): did not inhibit
5 | CN1[C@H]2CC[C@@H]1[C@@H](C(=O)O)[C@@H](OC(=O)c1ccccc1)C2 [benzoyl ecgonine] | – | – | – | – | inhibition of Mab 15A10 [1]: no inhibition
6 | COC(=O)[C@H]1[C@@H](OC(=O)c2ccccc2)C[C@@H]2CC[C@H]1N2C [cocaine] | – | – | – | – | LD50 [4]: 10 mg/kg; LD90 [4]: 16 mg/kg; peak pulmonary vein concentration [5]: 10 to 30 µM
7 | O=C(O)c1ccccc1 [benzoic acid] | – | – | – | – | Kd ([1]; read-out: Kd, inhibition of Mab 15A10 in vitro): ~250 µM; Ki [1]: 250 µM
8 | B1 | bound all three conjugates | 490 | 0.11 | 1100 | –
9 | B2 | bound all three conjugates | 1020 | 0.072 | 880 | –
10 | B3 | bound all three conjugates | 3000 | 0.011 | 420 | –
11 | B4 | bound only TSA-1 and 3 | 270 | 0.015 | 140 | –
12 | B5 | – | – | – | – | binding activity by Elisa [8]: demonstrated binding activity; catalytic activity (release of ^3H-benzoic acid from ^3H-phenyl-cocaine) ([7]; result in words): Enzymatic activity was confirmed
13 | B6 | bound only TSA-1 and 3 | 220 | 2.3 | 2.3×10^4 | mean cocaine dose at death ([9]; antibody 5 mg/kg): 8.2 ± 1.0 mg/kg; cocaine dose at death of the single non-survivor ([9]; antibody 15 mg/kg): 15.9 mg/kg; survival to LD90 cocaine infusion ([9]; antibody 15 mg/kg i.v.): Four of five; survival to LD90 cocaine infusion ([9]; antibody 50 mg/kg i.v.): all of five; effect on survival / protection from cocaine toxicity ([9]; result in words, p<0.001): dose-dependent increase in survival; also recorded: significant; increase in plasma ecgonine methyl ester [10]: > 10 fold; kcat (activity) remaining after repetitive turnover ([7]; after 6 hrs and >200 turnovers, of baseline): > 95%; potency relative to the first catalytic antibodies ([7]; at sub-saturating concentrations of cocaine): 100 fold; kcat/ko ([7]; listed as 15A10): 23000; increase of mean lethal dose of cocaine over controls [11]: over 3 fold; dose of cocaine at seizure (average) [11, 12]: 32.5 mg/kg; mean lethal dose of cocaine [11, 12]: 37.0 mg/kg
14 | B7 | bound only TSA-1 and 3 | 530 | 0.60 | 5500 | –
15 | B8 | bound only TSA-1 and 3 | 1200 | 0.12 | 1100 | –
